Experimental data published in patent US10105442B2, “Treatment of diabetes type 1 using GLP-1 and anti-IL-21” (Novo Nordisk A/S, priority 2014, dated 2018).

Legend:
[1] = test system: recent-onset NOD mouse model; experiment: Liraglutide in combination with Anti-IL-21 in the NOD model, confirmation study (Example 4); format: in vivo
Protocol: (§1) The recent-onset NOD mouse model was used. Mice were screened twice weekly and diabetes onset was defined as 2 consecutive blood glucose values of >250 mg/dL. Mice were enrolled into the experiment starting at 11 weeks of age and continued to be enrolled through 26 weeks of age. Dosing was weight based.
(§2) Blood glucose was measured by using a blood glucose meter (Bayer Contour USB) with the corresponding blood glucose strips. Mice with a blood glucose level>250 mg/dL on two consecutive days were considered diabetic. […] If the measurement was again >250 mg/dL, the animal was recorded as diabetic, enrolled into a treatment group, and was monitored further until it reached two consecutive readings of >600 mg/dL. At this time the mouse was sacrificed. Mice were also sacrificed before they reached a blood glucose value of >600 mg/dL if their overall condition was deteriorating, as determined by weight and/or overall appearance.
(§3) Anti-IL-21 was administered i.p. five times twice weekly starting immediately after inclusion of mice, i.e. from Day 0. […] Mouse surrogate anti-IL-21 is an mIgG1/kappa isotype with the VL amino acid sequence: […] […] […] (SEQ ID NO:26), and the VH amino acid sequence: […] […] […] (SEQ ID NO:27). […] Before use, anti-IL-21 was diluted in buffer (20 mM phosphate, 150 mM NaCl, pH=7.4). Aliquots of anti-IL-21 for injection into the animals were only thawed once.

murine IL-21 = murine IL-21 (Mus musculus, UniProt Q9ES17); experiment: Inhibition of IL-21 mediated STAT-3 phosphorylation in BaF3/KZ134/hIL-21R cells (Assay III); format: cell-based; settings: selected antibody clone
Protocol: Assay (III): Inhibition of IL-21 Mediated STAT-3 Phosphorylation.
The ability of anti-IL-21 antibodies to neutralize IL-21 can be measured in a cell based assay using phosphorylation of STAT3 as read-out. BaF3 cells transfected with IL-21 receptor (IL-21R) are used and as IL-21 induces STAT3 phosphorylation reduction hereof by an anti-IL-21 antibody reflects the IL-21 neutralization activity.
Reduction in murine IL-21 activity in the presence of antibody containing supernatant was determined by measuring the level of STAT3-phosphorylation following ligand-receptor interaction in BaF3/KZ134/hIL-21R cells.
Relative neutralization activity was determined based on the percentage decrease in phosphorylated-STAT3 levels relative to control cells incubated with ligand alone. Baf3/KZ134/hIL-21R cells are plated in 96-well round-bottom tissue culture plates at a density of 50,000 cells/well. Murine IL-21 was pre-incubated with the supernatant from each tested well before transfer to the plated cells. The reactions were stopped and cells lyzed according to the manufacturer's instructions, (BIO-RAD Laboratories). Supernatants were collected, mixed with assay buffer and stored. […] The level of phosphorylated-STAT3 was determined on an array reader (BIO-PLEX, BIO-RAD Laboratories) according to the manufacturer's instructions. […]

[2] = test system: recent-onset NOD mouse model; experiment: Determination of blood glucose effect in recent-onset NOD model (Assay V; Examples 1-3); format: in vivo
Protocol: Assay (V): Determination of Blood Glucose Effect in NOD Model
The purpose of this experiment was to determine the effect of administration of a GLP-1 agonist, such as the GLP-1 peptide, and/or an inhibitor of IL-21 function on blood glucose.
as §1, §2
The mouse surrogate anti-IL-21 antibody was prepared by immunization of 6 to 8 week old BALB/c mice by s.c. injection with recombinant mouse IL-21 in a mixture of adjuvants. […] (SEQ ID No 13).
as §3
Enrolment of mice of as described in Example 1 was continued adding 9, 8, 8 and 8 subjects to the treatment groups 1 to 4, respectively.

[3] = test system: pancreatic tissue (islets, insulitis) of NOD mice; experiment: Histological examination of pancreatic tissue of NOD mice (H&E, CD8/CD4 and insulin staining); format: in vivo, mouse
Protocol: Histological examination: The histological analyses were performed on pancreatic tissue from a subset of mice from each group. Sections were stained with Hematoxylin and eosin (H&E) to assess insulitis and immunofluorescent staining with either CD8 and insulin or CD4 and insulin to assess insulitis and also characterize cell types within infiltrates.

B1: Anti-IL-21: Mouse surrogate anti-IL-21 antibody, mIgG1/kappa isotype, VL SEQ ID NO:26 and VH SEQ ID NO:27, raised against recombinant mouse IL-21 (antibody, V domains shown)
VH: MNFGPSLIFLVLILKGVQCEVQLVESGGGLVKPGGSLKLSCAASGFTFNRYSMSWVRQSPEKRLEWVAEISVGGSYTQYVDIVTGRFTISRDNAKNTLYLEMSSLRSEDTAMYYCARLYYSGSGDSYYYAMDYWGQGTSVTVSS
VL: MDFQVQIFSFLLISASVILSRGQTVLIQSPAIMSASPGEKVTMTCSASSSVSYMHWYQQKSGTSPKRWIYDTSKLASGVPARFSGSGSGTSYSLTISSMEAEDAATYYCQQWNSNPPTFGGGTKLEMK
- Survival through 70 days post onset of hyperglycaemia ([1]; Example 4): 75%
- Mice with established hyperglycaemia cured / reversed ([1]; Example 4, first 35 days post disease onset): 75%
- Neutralizing activity in STAT3 phosphorylation assay (in words) (murine IL-21): strong neutralizing activity
- Effect on hyperglycemia (in words) ([2]; Example 1, NOD mice, 70 days): able to reverse hyperglycemia in some of the mice
- Mice in which diabetes was reversed (BGV lowered to below 250 mg/dL) ([2]; Examples 1 and 2 compiled, FIG. 5A, 35 days period): half of the mice
- Number of mice surviving / remaining viable throughout the study period of 70 days (in words) ([2]; Examples 1 and 2 compiled, FIGS. 3 and 4): substantial number
- Average blood glucose +/− SD ([2]; Table 1, Example 1 mice (N = 10 per group at onset), day 0 post diabetes onset): 351 ± 56 mg/dL
- Average blood glucose +/− SD ([2]; Table 1, Example 1 mice, day 4 post diabetes onset): 370 ± 73 mg/dL
- Average blood glucose +/− SD ([2]; Table 1, Example 1 mice, day 7 post diabetes onset): 404 ± 93 mg/dL
- Average blood glucose +/− SD ([2]; Table 1, Example 1 mice, day 11 post diabetes onset): 405 ± 160 mg/dL
- Average blood glucose +/− SD ([2]; Table 1, Example 1 mice, day 14 post diabetes onset): 379 +/− 139 (n = 8) mg/dL
- Average blood glucose +/− SD ([2]; Table 1, Example 1 mice, day 18 post diabetes onset): 351 +/− 178 (n = 7) mg/dL
- Average blood glucose +/− SD ([2]; Table 1, Example 1 mice, day 21 post diabetes onset): 285 +/− 151 (n = 6) mg/dL
- Average blood glucose +/− SD ([2]; Table 1, Example 1 mice, day 25 post diabetes onset): 279 +/− 169 (n = 6) mg/dL
- Average blood glucose +/− SD ([2]; Table 1, Example 1 mice, day 28 post diabetes onset): 204 +/− 95 (n = 5) mg/dL
- Average blood glucose +/− SD ([2]; Table 1, Example 1 mice, day 32 post diabetes onset): 221 +/− 101 (n = 5) mg/dL
- Average blood glucose +/− SD ([2]; Table 1, Example 1 mice, day 35 post diabetes onset): 205 +/− 116 (n = 5) mg/dL
- Average blood glucose +/− SD ([2]; Table 1, Example 1 mice, day 39 post diabetes onset (liraglutide withdrawn after day 35)): 224 +/− 140 (n = 5) mg/dL
- Average blood glucose +/− SD ([2]; Table 1, Example 1 mice, day 42 post diabetes onset (liraglutide withdrawn after day 35)): 215 +/− 112 (n = 5) mg/dL
- Average blood glucose +/− SD ([2]; Table 1, Example 1 mice, day 46 post diabetes onset (liraglutide withdrawn after day 35)): 201 +/− 122 (n = 5) mg/dL
- Average blood glucose +/− SD ([2]; Table 1, Example 1 mice, day 49 post diabetes onset (liraglutide withdrawn after day 35)): 217 +/− 140 (n = 5) mg/dL
- Average blood glucose +/− SD ([2]; Table 1, Example 1 mice, day 53 post diabetes onset (liraglutide withdrawn after day 35)): 229 +/− 186 (n = 5) mg/dL
- Average blood glucose +/− SD ([2]; Table 1, Example 1 mice, day 56 post diabetes onset (liraglutide withdrawn after day 35)): 128 +/− 10 (n = 4) mg/dL
- Average blood glucose +/− SD ([2]; Table 1, Example 1 mice, day 60 post diabetes onset (liraglutide withdrawn after day 35)): 174 +/− 59 (n = 4) mg/dL
- Average blood glucose +/− SD ([2]; Table 1, Example 1 mice, day 63 post diabetes onset (liraglutide withdrawn after day 35)): 156 +/− 30 (n = 4) mg/dL
- Average blood glucose +/− SD ([2]; Table 1, Example 1 mice, day 67 post diabetes onset (liraglutide withdrawn after day 35)): 138 +/− 16 (n = 4) mg/dL
- Average blood glucose +/− SD ([2]; Table 1, Example 1 mice, day 70 post diabetes onset (liraglutide withdrawn after day 35)): 153 +/− 30 (n = 4) mg/dL
- Average blood glucose +/− SD ([2]; Table 2, additional mice (Example 2), day 0 post diabetes onset): 353 +/− 59 (n = 8) mg/dL
- Average blood glucose +/− SD ([2]; Table 2, additional mice (Example 2), day 4 post diabetes onset): 326 +/− 104 (n = 8) mg/dL
- Average blood glucose +/− SD ([2]; Table 2, additional mice (Example 2), day 7 post diabetes onset): 375 +/− 103 (n = 8) mg/dL
- Average blood glucose +/− SD ([2]; Table 2, additional mice (Example 2), day 11 post diabetes onset): 361 +/− 125 (n = 8) mg/dL
- Average blood glucose +/− SD ([2]; Table 2, additional mice (Example 2), day 14 post diabetes onset): 338 +/− 153 (n = 8) mg/dL
- Average blood glucose +/− SD ([2]; Table 2, additional mice (Example 2), day 18 post diabetes onset): 336 +/− 183 (n = 8) mg/dL
- Average blood glucose +/− SD ([2]; Table 2, additional mice (Example 2), day 21 post diabetes onset): 248 +/− 153 (n = 6) mg/dL
- Average blood glucose +/− SD ([2]; Table 2, additional mice (Example 2), day 28 post diabetes onset): 219 +/− 162 (n = 6) mg/dL
- Average blood glucose +/− SD ([2]; Table 2, additional mice (Example 2), day 35 post diabetes onset): 147 +/− 15 (n = 5) mg/dL
- Average blood glucose +/− SD ([2]; Table 2, additional mice (Example 2), day 42 post diabetes onset (liraglutide withdrawn after day 35)): 264 +/− 121 (n = 2^#) mg/dL
- Average blood glucose +/− SD ([2]; Table 2, additional mice (Example 2), day 49 post diabetes onset (liraglutide withdrawn after day 35)): 118 +/− 17 (n = 2) mg/dL
- Average blood glucose +/− SD ([2]; Table 2, additional mice (Example 2), day 56 post diabetes onset (liraglutide withdrawn after day 35)): 286 +/− 107 (n = 2) mg/dL
- Average blood glucose +/− SD ([2]; Table 2, additional mice (Example 2), day 63 post diabetes onset (liraglutide withdrawn after day 35)): 314 +/− 157 (n = 2) mg/dL
- Average blood glucose +/− SD ([2]; Table 2, additional mice (Example 2), day 70 post diabetes onset (liraglutide withdrawn after day 35)): 400 +/− 108 (n = 2) mg/dL
- Average blood glucose +/− SD ([2]; Table 3, all mice (Examples 1 and 2 compiled), day 0 post diabetes onset): 352 +/− 57 (n = 18) mg/dL
- Average blood glucose +/− SD ([2]; Table 3, all mice (Examples 1 and 2 compiled), day 4 post diabetes onset): 351 +/− 91 (n = 18) mg/dL
- Average blood glucose +/− SD ([2]; Table 3, all mice (Examples 1 and 2 compiled), day 7 post diabetes onset): 391 +/− 99 (n = 18) mg/dL
- Average blood glucose +/− SD ([2]; Table 3, all mice (Examples 1 and 2 compiled), day 11 post diabetes onset): 385 +/− 147 (n = 18) mg/dL
- Average blood glucose +/− SD ([2]; Table 3, all mice (Examples 1 and 2 compiled), day 14 post diabetes onset): 358 +/− 148 (n = 16) mg/dL
- Average blood glucose +/− SD ([2]; Table 3, all mice (Examples 1 and 2 compiled), day 18 post diabetes onset): 343 +/− 181 (n = 15) mg/dL
- Average blood glucose +/− SD ([2]; Table 3, all mice (Examples 1 and 2 compiled), day 21 post diabetes onset): 267 +/− 153 (n = 12) mg/dL
- Average blood glucose +/− SD ([2]; Table 3, all mice (Examples 1 and 2 compiled), day 28 post diabetes onset): 212 +/− 136 (n = 11) mg/dL
- Average blood glucose +/− SD ([2]; Table 3, all mice (Examples 1 and 2 compiled), day 35 post diabetes onset): 176 +/− 88 (n = 10) mg/dL
- Average blood glucose +/− SD ([2]; Table 3, all mice (Examples 1 and 2 compiled), day 42 post diabetes onset (liraglutide withdrawn after day 35)): 229 +/− 117 (n = 7^#) mg/dL
- Average blood glucose +/− SD ([2]; Table 3, all mice (Examples 1 and 2 compiled), day 49 post diabetes onset (liraglutide withdrawn after day 35)): 189 +/− 127 (n = 7) mg/dL
- Average blood glucose +/− SD ([2]; Table 3, all mice (Examples 1 and 2 compiled), day 56 post diabetes onset (liraglutide withdrawn after day 35)): 181 +/− 97 (n = 6) mg/dL
- Average blood glucose +/− SD ([2]; Table 3, all mice (Examples 1 and 2 compiled), day 63 post diabetes onset (liraglutide withdrawn after day 35)): 209 +/− 119 (n = 6) mg/dL
- Average blood glucose +/− SD ([2]; Table 3, all mice (Examples 1 and 2 compiled), day 70 post diabetes onset (liraglutide withdrawn after day 35)): 236 +/− 134 (n = 6) mg/dL
- Cellular infiltration of pancreas (in words) ([3]; subset of mice from each group): decreased extent of infiltration
- Insulitis (in words) ([3]; surviving mice): reduced
